The DeepSol protein solubility set

Test: soluble on expression in E. coli; label from the status in PepcDB or PDB records

Sequence	soluble on expression in E. coli
MSLAQAPHPERIYLSGTGIDNTKTWDFFCSAGQNSGKWKKIEVPCNWELQGFGEYTYGRWYTIKGQHPSDETGTYRYKFDAPKSWAGQRVKIFFDGVMTDAEIMINGKPAGEMHQGGFYRFNYDITELLNLGKKNQLEVKVAKESANRSINAAERKADWWLFGGIYRPVWLEVLPQIHMEHFVLNADHQGKLQAAVDMAGDAKGHEIIVSVRSLKDGKTVYTSNGQTTITHSISNSDKEQMISGEWASIIPWSTENPNLYVAKLELKNPEGKIVQTRETRIGFRTVEFFPQDGVYLNGTKLVVKGINRHSFSVDGGRTTSAALSRMDALLIKEMNMNAVRSHYPPDEHFLDMCDSLGLVYMDELAGWQNGYDSRVGAKLVKEMIERDVNHPCIILWSNGNEGGWNTQTDPLFAQYDRLQKRHMVHPWADFNDLDTHHYPTYLTGVARFTNGYKVFMPTEFMHAMYDQGGGAGLRDFWDRWCTNPLFAGGFIWVYCDEAPKRSDKGGILDSDKSNAPDGVVGPRREKEGSYYAIRAQWSPIQLKPLLITNHFDGRFLLTNEYTFTNLKDCRMTYKVLSCGTPLQGNAEAGKVIAEGKVQLPSINPGETGTARFELPDSFRKGDVLELEAFDREGKSICNWTYPIHLAKQYFERNLAQTTLTPAPQKAEARQTSDAIELKSSKVSITFDAATGMIRHIKSGETEVPFKDGPVAIGMKMRYEPSLSYTRHSSDGAIYCAKYKGAADSIVWRLTNEGLLYMDAILLNRGSGGGGFDDAFMDAQVFNLGLSFSYPEQNCSGMKWMGRGPYRVWKNRIPGTNYGIWHKDYNNTITGESFENLIYPEFKGYHANLYWATLEGEKTSFTVYSRNDGTFFRVFTPEEPAGRIKDTMPAFPEGDLSFLLDIPAICSFKPIEQQGPNSQPGNIRIKSGDEGLHLNLMFDFREGHHHHHH	soluble
MNNKLIYRSVRFATHNSQLLLPPLVLYRRILRQHKLLPGPQREMGDQYVRNEFKLHKDIDNPLHIVGFLASWQDYLHMISNGKWKDATLSSETLEKLSPEQTVQLYELMKETQKLHQDNEIESSKDVKRNNKD	not soluble
MNPIPADVAAVVLAGGVGRRFGRPKALAMMDGISLVERAVEALSSGPADVYVSVSPALERPVARLVGSRRVIVDLVEQAPCEGPLRAFLTAASTLVSYSNLVFMPVDAPWASWRDLEPIYNASKAIGSGASYFSGEGIVHPLFLAARRKSLLTAAWTACWGRAEKRASAILRSLDPLILLGSSETRSPLALATVNTPQDLWRPSRVPAPAEGYILLEGHSILYKISSTMNSYYSALALEAEYKLYRRLGLLRLASHVLKDAAALNVSTSLIQQESMAGGLGLEHHHHHH	not soluble
MNVSVNIKNVTKEYRIYRTNKERMKDALIPKHKNKTFFALDDISLKAYEGDVIGLVGINGSGKSTLSNIIGGSLSPTVGKVDRNGEVSVIAISAGLSGQLTGIENIEFKMLCMGFKRKEIKAMTPKIIEFSELGEFIYQPVKKYSSGMRAKLGFSINITVNPDILVIDEALSVGDQTFAQKCLDKIYEFKEQNKTIFFVSHNLGQVRQFCTKIAWIEGGKLKDYGELDDVLPKYEAFLNDFKKKSKAEQKEFRNKLDESRFVIK	not soluble
MAHHHHHHMWKAIFGKKVDSIKAIDSIYHLSDNDFRWLQGFPQLKGSDRVQTLASSEGEGSKDDYMEEPVGPVSHRDVLLYTVGIIKGATHPLLRESSLAVTGTHTKEGETFFTLDFR	not soluble
MDLDQLDLNPRITAAVKRGRLKSVKEILCYSGPDLQRLTGLPSHDVQCLLRAASLHLRGSRVLSALHLFQQKESFPEQHQRLSLGCPVLDQFLGGGLPLEGITGLAGCSSAGKTQLALQLCLAVQFPRQYGGLEAGAVYICTEDAFPSKRLWQLIAQQRRLRTDAPEELIEKIRFSNHIFIEHAADVPHFVVSSTFRPQPSGRSSCSRWGPHCED	soluble
MSQLNDSDIILFEYNFHYQNIRSKNTLDIAFGIDRNFLFGCGVAIASILLNNREISCEFHVFTDYISDKDKLYFSDLAKQYNSRINIYVINCDKLKSLPSTKNWTYATYFRFIIADYFYHKHEKILYLDADIACKGSIKELLDYQFSTNEIAAVVAERDVEWWQNRASVLTTPQLASGYFNAGFLLINIDEWNLNNISSKAIEMLRDPDWVSKITHLDQDVLNVLLNGKVKFISEKYNTRYSINYELKDKVDNPVNDDTVFIHYVGPTKPWHEWADYPVSRSFLIAKAASPWSKEDLLKPVNSNQYRYCAKHKFKQKHYMAGIFNYLKYYKEKCF	not soluble
MGSDKIHHHHHHMPAFIKKELIMKLQGAGLGYRRNLAEDFLQLPSNNAIQFIEVAPENWSKMGGMARYQFDQAAERFPLAVHGLSLSLGGQAPLDRELLRNTKALINQYNSSFFSEHLSYCECEGHLYDLLPMPFTEEAVKHVAQRIRDVQDFLGLQISLENTSYYLHSPTSTMNEVEFLNAIAQEADCGIHLDVNNIYVNGVNHGLLDPYIFLDQVDVKRVNYIHIAGHDEEHSAAQVVENSANESFNKVKGAYRHLPELLIDTHGEAVKGTVWDLLEYAYQRLPTIPPTLLERDFNFPPFAELYAEVEHIAQLQQKYAHTEVMSYAA	not soluble
QTFSEEDHAILASYFPIVDGIAALIGEHCEIVLHSLEFLENSAIYIANGHNTDRKIGSPLTDKALKSLHQMQTDSVSKPYFTRLKGGILMKSITIAIRNSKQHVIGFICININLDVPTAQFLTSFIPRTQDDEN	not soluble
MGSDKIHHHHHHMVEVVGVRFREAGHIYYFAPGKSEYIYNEKVLVESQQSKQLATVAIPKKTVDSDDLPEDLKPILNKATANDLEKEQKNLADAEAAKSIANEKIRAHDLKMKLVRVEYTFDRSKMIFYFTADGRIDFRELVKDLAAIFRTRIELRQIGVRDEAKILGGIGPCGRQLCCSTFLGDFMPVSIKMAKDQGLSLNPVKISGLCGRLMCCLKYENDEYEAAKKELPDYGKEVITPDGKGKVVGLNLLSRIVKVRLHGREIAADYDYEEIKEATAKVAAEKGDQNG	not soluble
MGSDKIHHHHHHAQDKKKEFKMPTGYAGITHEMSEFYEPVPPVVTPGTDLKGGGFTAPSDAIVLFDGKDLSAWESVKGGAAEWDVHDGVFTVNKKKGDIQTKQKFNDFQMHIEWQVPTNITGESQSRGNSGIFLQGMYEVQVLDCYNNPTYVNGQTGSIYKQSIPLANAMRKPGEWNVYDIIYTAPTFKEDGSYRTHPTVTVIQNGVVLQNHTTILGTTEWIGFPQVKKHGAGPIILQSHGDPSEPISFRNIWIREL	not soluble
MGALAELAGDEKNGEGSRTFVFTNEGHTLGNALKTIIARYPEVDFCGYTIPHPTEQKLHFRIQSRRDRAIDILKRGLEDLEGLCDHTIVTFEKEMAEFNAMKVENLEHHHHHH	not soluble
GMFADNTLTPKEAVRLCALGTIASQPMRYSELAGSVRHFTSRIMGPSLELMGISIELLRYEGLVEAVDDGQGMEDDAMLAISAAGRRELHSLLTARLRPGSDLSKLVVALKMRFLGLMEAEERAHQIDLLIEGVDSELARLADLRGSDGEGGSALAAWLDHDMALLESRLAWLEDFRARL	soluble
MGFADFFKNFKINKLRTAPSKEEQPSHWVKCPKCYALMYHKEVFSKYSVCLKCHYHFRMKAAERIEFLCDVGSFEEFDKHLRPNDPLNFVDKESYKQRIKKYEKRTNRPSSVISGEAKINRMPLQIVVFDFSFMGGSLGSVEGEKIVRAINRAVAKREALLIVSASGGARMQESTYSLMQMAKTSAALNRLSEAKLPFISLLSDPTYGGVSASFAFLGDLIIAEPGAMIGFAGPRVIKQTIGADLPEGFQTAEFLLEHGLIDMIVHRKDLKKTLSDLIAMMTHKTSKIFLEHHHHHH	soluble
MKINSPLEAYKYLPQTNCGECGQPTCMAFASTLIDRSGKTTDCPPLIKEKKFAKKLAELDRLLAPEIRQVTIGVGERAANIGGDDVLYRHKLTFFNKTKMFFDVADNMDEAAIVERVKKISDYKKFYVGRNLLLDGVAIRAASNDPAKFATAVKKVIENTELPVILCSFNPAVLKAGLEVAKGKNPLLYAANKDNWKEVGELALEYNVPVVVSAFNDLDGLKTLAKTFAEAGIKDIVLDPGTYPTGKGLKDTFTNFLKIRRAGIMGDTEIAYPIMAMPLTAWMAGIADPVSASYWETVLASIFTIRYGDIMLLHSMEPYATMPEVHLAETIYTDPRSPVAVDSKMYKVGNPTADSPVLFTTNFALTYYTVESDLASNGIDCWLLAVNTDGIGVEAAAAGGQLTADKVKDAFEKSGFDLKSDVTHNSVVIPGLAARLQGDIEDKLNVKVMVGPMDSGRLPGWMEKNWPPKK	not soluble
MFHVKLTLTTMLDTMNSSAHRPVVVADVDTGIDDALAITYLGYLHRRGLIELRITTSAGNCTAEQAAANSAEIMNSLTLSDVPITPGAPKPRALPLTTTPETHGPTGLGYHTTRATIPQLSNAAAAVDLWKGADYLLVAGPATNVAWAAENAPEVLNAIPHVTFMTGAFHYPGNTTPTAEWNAWVDPHALKEALAHYRGHAVRPTICPLNVTESVLLTPQRLKQWCQRSQEPVLPILSDALRFYFEFHESVGVGYMAQIHDLAAAMVLLNRVPHTTRPGFVDVEADAELTRGTTVVDWDSNYGDHPANAQILTALQSEDVFAEFERVVLEY	not soluble
MGSDKIHHHHHHVAVWNPWRGCHRYSEGCKFCYIHKGDMKRGMDTNLIVKSAKFNAPVAVNKQGHYIMKSGQLVYCCFSTDFLLEDADPWRDECWSMMKERPDLHFLFLTKRIERFSQCLPGDWGEGYENVTVGCTVENQHTADERLEIFSKLPIKHKNIALQPMLEAIDIEKYLEGIELVVVGGEYDRNARPFDYEWALAVREQCIRHQVSFSFRQCGTNFIQNGKLRRLNYGMLFKCARESNIDYQAGRE	not soluble
MGSDKIHHHHHHAAGQPRLVKSLVPDMPSQAPDYFCTWNLQGYVASYKSTELTRAAMTEDYLFGDGLYQNWVDCYPAIRKDLYFVMDDSWDIPKDVNDSPNLYLGCVELSSDRFPSFRGDAVERLKQLSEQIKSKGWKGVGGWICAQKAETHAAIPEEEYWKQRIKAANAAGFDYWKVDWGKEDRNGEWRRKLTAIGKRYAPHLYIEHALRNEFIEFSDVFRTYDVENITAQPITIRRICDLLPYKTVEGAKGIINCEDEPYIAVGLGCAIGVMRHPFAETLPDGAQDFVFPPVGRDIKRRLDEVVRGVRWHRIAEPFAVGYGTFAIDSVKLTDHWILQENETWNKGRTVGADVTADAPARVARNMKLPEVSGAPLSVCPFVLASRYPNGAVAVSTIGRNVGREYVTEKVAVSISVDRWDIPIGLFGYFKEVTMVFPSPLKTGKHTVFAQDLAGENPVDITSNVVIKDNRLIIPGEVISRVGLMNASEGDCSDPGMVIRVM	not soluble
MSLTSTLLRGRTLSFVRWPETIDDHSAWRYEEDGGLLISDGRIIASGAYHDVEKQAGEGAKKIDHRPHLLLPGFIDTHVHFPQMQVIASYGAELLDWLNTYTFPEETKFANAQHGRRIARLFLDEMVRHGTTTVAAYCSVHKASAEAFFAESHDRNMLNIAGKVMMDRNAPDGVLDTPQSGYDDTKALIKEWHGKGRQHYAITPRFAITSSPEQMEMAGALCREHPGLHMQTHLSENHAEIAFTQQLYPRSRDYTDVYEHYGLLGKNSLFGHCIHLSEREADALSQSGSVAVFCPTSNLFLGSGLFDYQRFRRRDKPLRIAAATDVGGGTNYSMLRTMDEGYKVIALNGEKLNPFQSFWQITRGNAEALSVADKIGTLDQGTDADIVVLDARATPAMRLRMETAQTLAQELFLLQTLGDDRAVREVYVAGRAAKSDMANEGHHHHHH	soluble
